Measured values published in patent US20210268073A1, “METHODS OF REDUCING POLYSORBATE DEGRADATION IN DRUG FORMULATIONS” (Regeneron Pharmaceuticals, Inc., priority 2020, published 2021).

Settings: pH 6

B1: human liver carboxylesterase 1: commercial human liver carboxylesterase 1 purchased from Abcam, SEQ ID NO: 12 (protein, listed as Homo sapiens)
chain: MWLRAFILATLSASAAWGHPSSPPVVDTVHGKVLGKFVSLEGFAQPVAIFLGIPFAKKPLGPLRFTPPQPAEPWSFVKNATSYPPMCTQDPKAGQLLSELFTNRKENIPLKLSEDCLYLNIYTPADLTKKNRLPVMVWIHGGGLMVGAASTYDGLALAAHENVVVVTIQYRLGIWGFFSTGDEHSRGNWGHLDQVAALRWVQDNIASFGGNPGSVTIFGESAGGESVSVLVLSPLAKNLFHRAISESGVALTSVLVKKGDVKPLAEQIAITAGCKTTTSAVMVHCLRQKTEEELLETTLKMKFLSLDLQGDPRESQPLLGTVIDGMLLLKTPEELQAERNFHTVPYMVGINKQEFGWLIPMQLMSYPLSEGQLDQKTAMSLLWKSYPLVCIAKELIPEATEKYLGGTDDTVKKKDLFLDLIADVMFGVPSVIVARNHRDAGAPTYMYEFQYRPSFSSDMKPKTVIGDHGDELFSVFGAPFLKEGASEEEIRLSKMVMKFWANFARNGNPNGEGLPHWPEYNQKEGYLQIGANTQAAQKLKDKEVAFWTNLFAKKAVEKPPQTEHIEL
For B1, the “PS80 degradation pattern compared with mAb-1” value was “equivalent degradation pattern”.
